EC50 (nM), ELK-luciferase and Efficacy, ELK-luciferase data for 14 substances are collected here from patent US20100285131A1.

The target of the experiment is β-Klotho overexpressed in recombinant human 293T kidney cells. Put plainly: cell-based or functional assay.
As for “hFc-(L15)-hFGF21(L98R, P171G, S181T) (Fc fusion)”, the EC50 (nM), ELK-luciferase worked out at 3.07 nM and the Efficacy, ELK-luciferase was 77.6%.
The matching figures for “hFc-(L15)-hFGF21(L98R, P171G, 1-179) (Fc fusion)”: 7.8 nM and 77.4%.
Taken in the same sequence, the figures for MKEDD-hFGF21-(L15)-hFc (Fc fusion) were 834 nM and 83.1%.
Taken in the same sequence, the figures for “hFc-(L15)-hFGF21(L98R, P171G, Y179G) (Fc fusion)” were 61 nM and 82.6%.
With “hFc-(L15)-hFGF21(1-178, L98R, P171G) (Fc fusion)”, the EC50 (nM), ELK-luciferase came to 167 nM and the Efficacy, ELK-luciferase turned out to be 63.9%.
In the case of “hFc-(L15)-hFGF21(L98R, P171G, S181P, P182) (Fc fusion)”, the EC50 (nM), ELK-luciferase is 272 nM and the Efficacy, ELK-luciferase was found to be 69.9%.
In the case of “hFc-(L15)-hFGF21(L98R, P171G, S181G) (Fc fusion)”, the EC50 (nM), ELK-luciferase worked out at 3.43 nM and the Efficacy, ELK-luciferase worked out at 77.3%.
Turning to “hFc-(L15)-hFGF21(L98R, P171G, GGGGG182-6) (Fc fusion)”, the EC50 (nM), ELK-luciferase worked out at 4310 nM and the Efficacy, ELK-luciferase was found to be 99.7%.
On to “hFc-(L15)-hFGF21(L98R, P171G, S181L) (Fc fusion)”, for which the EC50 (nM), ELK-luciferase is 3.46 nM and the Efficacy, ELK-luciferase was 72.6%.
Taken in the same sequence, the figures for “hFc-(L15)-hFGF21(L98R, P171G, S181A) (Fc fusion)” were 2.66 nM and 73.5%.
Taken in the same sequence, the figures for “hFc-(L15)-hFGF21(L98R, P171G, A180P) (Fc fusion)” were 617 nM and 77.1%.
The matching figures for “hFc-(L15)-hFGF21(L98R, P171G, S181K) (Fc fusion)”: 130 nM and 87.9%.
For the substance “hFc-(L15)-hFGF21(L98R, P171G, Y179P) (Fc fusion)”, the EC50 (nM), ELK-luciferase came to 428 nM and the Efficacy, ELK-luciferase was 44.4%.
Taken in the same sequence, the figures for “hFc-(L15)-hFGF21(L98R, P171G, S181P) (Fc fusion)” were 33.8 nM and 79.5%.
